From patent publication US20040224363A1 come the findings set out here.

Assay [1] concerns the target putative IBC-1 receptor on G361 melanoma cells, much lower affinity binding site. The assay is described as follows: Scatchard analysis of AP-IBC-1 binding to G361 melanoma cells (bound AP activity).
The target of assay [2] is putative IBC-1 receptor on G361 melanoma cells, moderately high affinity binding site. Described as above.

What is called Kd is a measure of binding affinity in units of concentration. For the substance “alkaline phosphatase-IBC-1 (AP-IBC-1) fusion protein (from UniProt P81605 20-110) (ligand)”, the Kd in assay [1] was found to be 360 nM; in assay [2] it was 37.5 nM. Moreover, the binding sites/cell (binding sites/cell) stood at 350000 in assay [1] and 17000 in assay [2].
